B1: Recombinant human α1-microglobulin (A1M) with an N-terminal His-tag (natural protein, UniProt P02760 20-203, looked up)
chain: GPVPTPPDNIQVQENFNISRIYGKWYNLAIGSTCPWLKKIMDRMTVSTLVLGEGATEAEISMTSTRWRKGVCEETSGAYEKTDTDGKFLYHKSKWNITMESYVVHTNYDEYAIFLTKKFSRHHGPTITAKLYGRAPQLRETLLQDFRVVAQGVGIPEDSIFTMADRGECVPGEQEPEPILIPRV
notes: human α1-microglobulin (A1M), the lipocalin cut from the AMBP precursor; construct as in Kwasek et al., 2007; also called recombinant A1M; not shown: His-tag, N-terminal, kept

Experiments:
[1] = molecular target: Cleaved A1M (~22 kDa band formed with illuminated riboflavin or FAD) (human); test: SDS-PAGE; 12% SDS-PAGE, samples reduced with 5% β-mercaptoethanol and boiled 1 min (similar results non-reducing); A1M with buffer or 40, 200, 1000 μM riboflavin or FAD, illuminated or in darkness 1 h at RT; Coomassie stain and Western blot
[2] = molecular target: the molecule itself; test: as above

Molecule | stoichiometry N [1] | stoichiometry N [2]
Cleaved A1M (~22 kDa band formed with illuminated riboflavin or FAD) (domain or fragment) | 2 | –
B1 | – | 2
